# T1: Engrailed 2 full length (En2, ChEn2) (Gallus gallus, UniProt Q05917 Q05917:1-289)
# T1 sequence: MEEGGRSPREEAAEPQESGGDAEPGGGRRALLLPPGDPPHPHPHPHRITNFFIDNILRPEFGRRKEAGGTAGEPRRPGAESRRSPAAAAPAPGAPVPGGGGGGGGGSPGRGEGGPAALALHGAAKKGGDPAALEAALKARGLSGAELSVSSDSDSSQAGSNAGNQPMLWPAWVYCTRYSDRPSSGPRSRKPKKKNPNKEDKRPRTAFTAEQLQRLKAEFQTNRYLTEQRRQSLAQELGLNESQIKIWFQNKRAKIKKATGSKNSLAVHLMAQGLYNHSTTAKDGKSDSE
# T2: EnHD (Engrailed 2 homeodomain, 60 aa) (Gallus gallus, UniProt Q05917 Q05917:200-259)
# T2 sequence: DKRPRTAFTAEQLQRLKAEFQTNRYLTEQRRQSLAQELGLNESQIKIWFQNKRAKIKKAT
# B1: BPAG1e promoter oligonucleotide -2225 to -2180 (dsDNA)
# DNA 1: CTCAAATAATTAGTCATTAAAAAAAATAAAGGCATATGAGCCAGCCT
# DNA 2: AGGCTGGCTCATATGCCTTTATTTTTTTTAATGACTAATTATTTGAG
# B2: BPAG1e promoter oligonucleotide -694 to -665 (dsDNA)
# DNA 1: CGCAGAATATTGGCTCAGTAACTAAGTGTG
# DNA 2: CACACTTAGTTACTGAGCCAATATTCTGCG
# B3: NP6 site, six copies (dsDNA)
# DNA 1: TCAATTAAAT
# DNA 2: ATTTAATTGA
# Columns and labels:
# [1] = target: T1, Engrailed 2 full length (En2, ChEn2); assay: EMSA; two shifted complexes; 20 mM Tris-HCl pH 7.9, 35 mM KCl, 2.5 mM MgCl2, poly-dIdC, on ice; conditions: label: 32P
# [2] = target: T1, Engrailed 2 full length (En2, ChEn2); assay: EMSA; two shifted complexes; no ATTA core; 20 mM Tris-HCl pH 7.9, 35 mM KCl, 2.5 mM MgCl2, poly-dIdC, on ice; conditions: label: 32P
# [3] = target: T2, EnHD (Engrailed 2 homeodomain, 60 aa); assay: EMSA; four complexes with 10 to 100 ng EnHD; fragment with six NP6 copies; conditions: tags: E. coli pET-3a, heparin-sepharose purified, no tag stated; label: 32P
# Description: FIGS. 2A, 2B and 2C: Bacterially produced EnHD binds DNA and is efficiently internalized into cells in culture. (A) Polyacrylamide gel electrophoresis is of EnHD purified from *E. coli* extracts (Coomassie staining). (B) Band shift assay, performed by incubating 0.5 ng ^32P-ATP-labeled NP6 oligonucleotides with increasing amounts (0, 10, 20, 50 and 100 ng) of purified EnHD. (C) ES cells (upper Pannels) or GMA24FIA (lower Pannels) were incubated for 2 hrs. with FITC-EnHD (300 ng/ml) (left) or FITC alone (right).
# The protocol described in FIG. 1 requires the EnHD added to the culture medium to be internalized by a large number of ES cells. EnHD was produced in E. coli and purified on heparin sepharose. […] To test the binding properties of EnHD, gel shift experiments were performed using a DNA fragment containing six copies of the NP6 site (TCAATTAAAT) (SEQ ID NO:3) known to bind Drosophila Engrailed.
binder,measurement,setting,value
B1,binding result,[1],binds
B2,binding result,[2],binds
B3,binding result,[3],binds
